{"source": "paper PMC2597217", "key": {"FoxO1 DBD S249E": {"target": "FoxO1 DBD S249E (human, UniProt Q12778 151-266, S249E)", "sequence (Q12778 151-266 S249E)": "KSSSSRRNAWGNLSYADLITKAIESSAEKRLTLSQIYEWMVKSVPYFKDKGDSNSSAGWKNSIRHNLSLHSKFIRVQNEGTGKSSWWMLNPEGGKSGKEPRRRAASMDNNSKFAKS", "test": "EMSA"}, "FoxO1 DBD S184C": {"target": "FoxO1 DBD S184C (human, UniProt Q12778 151-266, S184C)", "sequence (Q12778 151-266 S184C)": "as the sequence (Q12778 151-266 S249E) above, with S34C, E99S counted along it", "test": "crystal structure"}, "FoxO1 DBD A207C": {"target": "FoxO1 DBD A207C (human, UniProt Q12778 151-266, A207C)", "sequence (Q12778 151-266 A207C)": "as the sequence (Q12778 151-266 S249E) above, with A57C, E99S counted along it", "test": "crystal structure"}}}
{"binder": "DBE2 (dsDNA) DNA 1: TCTTGTTTACATTTTG DNA 2: CAAAATGTAAACAAGA", "values": [{"measurement": "binding result", "setting": "FoxO1 DBD S249E", "value": "binds"}]}
{"binder": "IRE (dsDNA) DNA 1: TGGTTTGTTTTGCTTG DNA 2: CAAGCAAAACAAACCA", "values": [{"measurement": "binding result", "setting": "FoxO1 DBD S184C", "value": "binds"}, {"measurement": "binding result", "setting": "FoxO1 DBD A207C", "value": "binds"}, {"measurement": "binding result", "setting": "FoxO1 DBD S249E", "value": "binds"}]}
